From US20190218296A1 (APEXIGEN, published 2019) come the findings set out here.

One assay concerns the target mouse PD-L1 (mouse, UniProt Q9EP73 19-239, limits assumed). The assay is described as follows: assay not described.
The target of another assay is T1, recombinant human PD-L1 (human, UniProt Q9NZQ7 19-238, limits assumed).
T1 construct: also called PD-L1 protein
The assay is described as follows: ELISA on human PD-L1, OD 650 nm.

For assay [1], the target named is T2, human PD-L1 on cells (human, UniProt Q9NZQ7 19-290).
T2 construct: whole, on cells; also called HEK-PD-L1 cells; PD-L1-expressing HEK 293 cells
T2 sequence (Q9NZQ7 19-290): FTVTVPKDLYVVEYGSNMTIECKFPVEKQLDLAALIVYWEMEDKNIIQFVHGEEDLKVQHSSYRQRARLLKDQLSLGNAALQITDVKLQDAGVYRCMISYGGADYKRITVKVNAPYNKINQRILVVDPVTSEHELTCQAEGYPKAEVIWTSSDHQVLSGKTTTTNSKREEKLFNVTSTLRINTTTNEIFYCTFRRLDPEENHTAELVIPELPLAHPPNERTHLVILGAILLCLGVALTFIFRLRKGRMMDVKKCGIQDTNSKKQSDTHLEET
The assay is described as follows: flow cytometry on HEK PD-L1 cells, MFI.

Assay [2] addresses T2, human PD-L1 on cells. The assay is described as follows: flow cytometry on activated CD4 T cells, MFI.
Assay [3] concerns the target T2, human PD-L1 on cells. The assay is described as follows: flow cytometry on HEK-PD-L1 cells; PE anti-human Fc, MFI. A general note: Flow cytometry measures light scatter and fluorescence of single cells or particles in a stream.
Assay [4] has as its target T2, human PD-L1 on cells. The assay is described as follows: flow cytometry on monocyte-derived dendritic cells, MFI.
Assay [5] addresses T2, human PD-L1 on cells. The assay is described as follows: flow cytometry on HEK PD-L1 cells, saturation fit on a linear axis.
Assay [6] addresses T2, human PD-L1 on cells. The assay is described as follows: flow cytometry on monocyte-derived dendritic cells; PE anti-human Fc, MFI. How it is done: The chimeric PD-L1 antibodies were further assessed for their ability to bind to human myeloid-derived dendritic cells. CD14 monocytes were isolated from PBMC using directly conjugated magnetic beads (Miltenyi) and cultured for 7 days in the presence of GM-CSF (100 ng/ml) and IL-4 (50 ng/ml) (Peprotech) to generate myeloid dendritic cells (mDC). mDC were added to 96-well plates (100,000 cells/well) and serial dilution of anti-PD-L1 antibodies or IgG1 isotype control antibody was added in duplicates and plates were incubated for 30 min on ice. After washing, a PE-conjugated donkey anti-human Fc specific antibody (Jackson Immunoresearch, 1:200 dilution) was added and plates were further incubated for 15 minutes on ice. After washing, cells were analyzed using a MACS quant flow cytometer.

Assay [7] concerns the target T2, human PD-L1 on cells. The assay is described as follows: flow cytometry on activated CD4 T cells, saturation fit on a linear axis.
The target in assay [8] is T2, human PD-L1 on cells. The assay is described as follows: flow cytometry on human PD-L1 transfected HEK 293 cells; PE anti-human Fc, MFI. How it is done:
Stable human PD-L1 transfected HEK 293 cells (Crown Bio, San Diego, Calif.) were added to 96-well plates (100,000 cells/well) and serial dilution of anti-PD-L1 antibodies or IgG1 isotype control antibody was added in duplicates and plates were incubated for 30 minutes on ice. After washing, a PE-conjugated donkey anti-human Fc specific antibody (Jackson Immunoresearch, West Grove, Pa. 1:200 dilution) was added and plates were further incubated for 15 minutes on ice. After washing, cells were analyzed using a MACS quant flow cytometer.

Assay [9] has as its target T2, human PD-L1 on cells. The assay is described as follows: flow cytometry on monocyte-derived dendritic cells, saturation fit on a linear axis.
For assay [10], the target named is T3, recombinant cynomolgus monkey PD-L1 (cynomolgus monkey, UniProt G7PSE7 19-238).
T3 construct: also called cynomolgus macaque PD-L1
T3 sequence (G7PSE7 entry or part of it limits assumed): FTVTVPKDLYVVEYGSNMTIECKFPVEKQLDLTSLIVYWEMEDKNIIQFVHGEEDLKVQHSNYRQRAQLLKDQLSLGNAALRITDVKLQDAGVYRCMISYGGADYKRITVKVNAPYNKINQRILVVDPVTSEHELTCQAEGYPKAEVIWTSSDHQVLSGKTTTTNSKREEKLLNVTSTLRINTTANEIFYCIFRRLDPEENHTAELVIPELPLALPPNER
The assay is described as follows: direct ELISA on plate-coated recombinant cynomolgus monkey PD-L1; anti-human Fc-HRP, TMB, OD 650 nm. How it is done:
To assess specificity of the selected clones, a direct ELISA for human and cynomolgus monkey PD-L1 was performed. ELISA plates were coated with recombinant human or cynomolgus monkey PD-L1. […] Serial dilutions of chimeric anti-PD-L1 antibodies were added, and a secondary HRP-conjugated, anti-human Fc-specific antibody was added. After washing, TMB substrate was added and plates were read at OD 650 nm.

In assay [11] the target is T2, human PD-L1 on cells. The assay is described as follows: flow cytometry on HEK-PD-L1 cells, saturation fit on a linear axis; column head prints only Kd, unit taken from the axis Ab (nM).
The target in assay [12] is T4, human PD-L1-his (Sino Biologics) (human, UniProt Q9NZQ7 19-238).
T4 construct: Bought from Sino Biologics; not shown: his tag
T4 sequence (Q9NZQ7 19-238 limits assumed): as the sequence (G7PSE7 entry or part of it limits assumed) above, with T33A, S34A, N62S, Q68R, R82Q, L173F, A185T, I192T, L215H counted along it
The assay is described as follows: competition ELISA: human PD-L1-his coated at 1 µg/ml, antibody dilutions, then human PD-1-mouse-Fc at 1 µg/ml, anti-mouse IgG-HRP, OD 650 nm. How it is done: Plates were coated with 100 μl of 1 μg/ml human PD-L1-his (Sino Biologics, Beijing, China) in carbonate-bicarbonate buffer overnight. After washing, plates were blocked with PBS 0.05% Tween-20 for 1 hour, and serial dilutions of anti-PD-L1 human chimeric antibody or IgG1 isotype control antibody was added. […] After washing, goat anti-mouse IgG (H+L)-HRP antibody (Jackson ImmunoResearch West Grove, Pa.) and plates were further incubated for 1 hour. After washing, TMB substrate (SurModics, Eden Prairie, Minn.) was added. The reaction was stopped using stop solution (SurModics) and plates were read at OD=650 nanometer.
A general note: In an ELISA, binding on a coated surface is turned into a signal by an enzyme label.

Assay [13] deals with T2, human PD-L1 on cells. The assay is described as follows: flow cytometry on CD4 T cells activated with anti-CD3; MFI; column head prints only EC50, unit taken from the axis Antibody Concentration (nM).

Chain of mouse PD-L1 (Q9EP73 19-239 limits assumed): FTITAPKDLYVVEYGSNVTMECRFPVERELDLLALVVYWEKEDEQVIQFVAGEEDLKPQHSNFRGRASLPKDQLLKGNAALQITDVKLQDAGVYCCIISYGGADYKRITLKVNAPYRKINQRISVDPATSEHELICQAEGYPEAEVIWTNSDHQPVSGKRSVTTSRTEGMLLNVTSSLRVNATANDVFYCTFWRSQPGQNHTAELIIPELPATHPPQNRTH
T1 sequence (Q9NZQ7 19-238 limits assumed): as the sequence (G7PSE7 entry or part of it limits assumed) above, with T33A, S34A, N62S, Q68R, R82Q, L173F, A185T, I192T, L215H counted along it

B1: chimeric anti-PD-L1 antibody 9A9 (antibody, human IgG1, V domains shown)
VH: QSVEESGGRLVTPGTPLTLTCTVSGIDLSGYWMSWVRQAPGKGLEYIGIVDNDGSAYYASWVNGRFTISKTSTTVDLKITSPTTEDTATYFCARQSGDWTFDLWGPGTLVTVSS
VL: DVVMTQTPASVSEPVGGTVTIKCQASQSIGRWLSWYQQKPGQPPKLLIYQASKLASGVPSRFSGSGSGTEFTLTISDLECADAATYYCQNNYDIIAYGNAFGGGTEVVVK
notes: also called c9A9; chimeric 9A9
As for B1, the binding result with mouse PD-L1 is given as “no binding”. Besides, the concentration giving a half-maximal response (EC50) with recombinant human PD-L1 turned out to be 7.13 ng/mL; with human PD-L1 on cells [1], 0.27 nM; with human PD-L1 on cells [2], 0.019 nM; in the assay with human PD-L1 on cells [4], 1.66 nM; in the assay with human PD-L1 on cells [6] it was 0.4 nM; in the assay with human PD-L1 on cells [8] it was 0.17 nM. In the assay with human PD-L1 on cells [13], this molecule had an EC50 of 0.68 nM. The “EC50 (read off the curve)” value is about 0.4 nM with human PD-L1 on cells [3] and about 4 ng/mL in assay [10]. Also, the dissociation constant Kd with human PD-L1 on cells [5] was found to be 0.16 nM; in the assay with human PD-L1 on cells [7], 0.015 nM; in the assay with human PD-L1 on cells [9] it was 0.79 nM; in the assay with human PD-L1 on cells [11] it was 0.3 nM. In assay [12], the “IC50 (read off the curve)” value is about 20 ng/mL.

Usually EC50 stands for the concentration giving half of the maximal effect. In general, EC50 (read off the curve) refers to the concentration giving half of the maximal effect. The term Kd denotes the constant that tells how readily two partners part at equilibrium.
